Measured values from patent US20190183976A1.
Blank lines part the entries; values can stand above or below the substance they belong to.

Tests used:
[1] = molecular target: CXCR4 (human) (UniProt P61073); assay: cell-based or functional assay
[2] = molecular target: CXCR4-VN (human) (UniProt P61073); assay: BiFC, U-2 OS cells, CXCR4-VN & GPCRx-VC; score=(positive cells/total cells)x100
Sequence of CXCR4-VN (human) (P61073 whole entry): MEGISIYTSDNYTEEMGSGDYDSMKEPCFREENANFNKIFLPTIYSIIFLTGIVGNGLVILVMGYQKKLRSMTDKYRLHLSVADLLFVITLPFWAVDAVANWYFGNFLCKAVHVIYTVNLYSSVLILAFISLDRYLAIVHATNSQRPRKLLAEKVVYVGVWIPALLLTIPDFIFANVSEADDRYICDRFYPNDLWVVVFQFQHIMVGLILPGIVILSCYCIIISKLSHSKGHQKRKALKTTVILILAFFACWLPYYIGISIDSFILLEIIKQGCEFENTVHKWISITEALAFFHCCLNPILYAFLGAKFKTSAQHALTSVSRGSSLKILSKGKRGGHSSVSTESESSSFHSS

Sequence of CXCR4 (human) (P61073 whole entry): as above
Sequence of CCR5-VC, P51681 1-352 (receptor; other documents disagree on this pair) (P51681 whole entry): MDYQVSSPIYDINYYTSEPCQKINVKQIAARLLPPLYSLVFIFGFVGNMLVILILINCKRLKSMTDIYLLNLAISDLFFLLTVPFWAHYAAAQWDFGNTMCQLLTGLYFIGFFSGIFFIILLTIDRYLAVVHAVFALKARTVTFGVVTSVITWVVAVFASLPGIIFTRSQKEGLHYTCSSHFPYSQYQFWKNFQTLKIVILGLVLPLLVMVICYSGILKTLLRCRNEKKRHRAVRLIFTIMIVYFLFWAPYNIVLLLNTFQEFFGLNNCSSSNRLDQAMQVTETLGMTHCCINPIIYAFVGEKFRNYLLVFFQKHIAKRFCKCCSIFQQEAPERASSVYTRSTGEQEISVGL

IC50 of Ca2+ response; MDA-MB-231 expressing CXCR4+ADRB2; + carvedilol 10 µM; CXCL12 20 nM + salmeterol 1 µM [1]: 2.78 nM
IC50 of Ca2+ response; MDA-MB-231 expressing CXCR4+ADRB2; no carvedilol; CXCL12 20 nM + salmeterol 1 µM [1]: 13.9 nM
IC50 of Ca2+ response; MDA-MB-231 expressing CXCR4 alone; CXCL12 20 nM + salmeterol 1 µM [1]: 80.2 nM
Substance: 12G5 (antibody)

IC50 of Ca2+ response; MDA-MB-231 with CXCR4+ADCYAP1R1; CXCL12 20 nM + PACAP-38 1 nM; + M65 1 µM [1]: 7.46 nM
IC50 of Ca2+ response; MDA-MB-231 with CXCR4+ADCYAP1R1; CXCL12 20 nM + PACAP-38 1 nM; + PACAP-(6-38) 1 µM [1]: 19.6 nM
IC50 of Ca2+ response; MDA-MB-231 with CXCR4+ADCYAP1R1; CXCL12 20 nM + PACAP-38 1 nM; no ADCYAP1R1 inhibitor [1]: 213 nM
IC50 of Ca2+ response; MDA-MB-231 with CXCR4+C5AR1; CXCL12 20 nM + C5a 0.03 nM; + W54011 10 µM [1]: 9.72 nM
IC50 of Ca2+ response; MDA-MB-231 with CXCR4+C5AR1; CXCL12 20 nM + C5a 0.03 nM; no C5AR1 inhibitor [1]: 118 nM
IC50 of Ca2+ response; MDA-MB-231 with CXCR4+CALCR; CXCL12 20 nM + calcitonin 100 nM; + CT-(8-32) (salmon) 10 µM [1]: 15.6 nM
IC50 of Ca2+ response; MDA-MB-231 with CXCR4+CALCR; CXCL12 20 nM + calcitonin 100 nM; no CALCR inhibitor [1]: 1040 nM
Substance: BKT140 (peptide)

BiFC score [2]: 44
Substance: CCR5-VC, P51681 1-352 (receptor; other documents disagree on this pair)

IC50 of Ca2+ response; MDA-MB-231 expressing CXCR4+ADRB2; + carvedilol 10 µM; CXCL12 20 nM + salmeterol 1 µM [1]: 0.02 nM
IC50 of Ca2+ response; MDA-MB-231 expressing CXCR4+ADRB2; no carvedilol; CXCL12 20 nM + salmeterol 1 µM [1]: 17.8 nM
IC50 of Ca2+ response; MDA-MB-231 expressing CXCR4 alone; CXCL12 20 nM + salmeterol 1 µM [1]: 23.9 nM
fold decrease of the IC50 of Ca2+ response in CXCR4-ADRB2 cells on co-treatment with carvedilol [1]: 890 fold
Substance: TZ14011 (peptide)
